Test system: Tn5 transposase hyperactive mutant EK54/MA56/LP372 (EK45/MA56/LP372 [sic] in example) E54K,M56A,L372P (Escherichia coli (transposon Tn5)?)
Assay: cell_activity
Conditions: 1 µl electroporated into E. coli MG1655, KanR colonies

linearized plasmid with mosaic-end kanamycin transposon and donor backbone
activity (with Mg2+): 6900 CFU

released transposable element (PvuII cut) with kanamycin resistance cassette flanked by inverted mosaic ends
activity (no Mg2+, synaptic complex formed in vitro, with Mg2+ 3.9e3, 10 µl dialyzed without Mg2+ 5.5e5): 53000 CFU

supercoiled plasmid with mosaic-end kanamycin transposon and donor backbone
activity (with Mg2+, none without transposase): 1600 CFU

— patent publication US6159736
